Measurements: patent US7666989B2 (priority 2003, dated 2010)
Several values for one entry are separate records, joined by “and”; a condition that tells them apart may be missing. Equal entries are not always repeated. Entries after “also recorded” stand apart in the source; their conditions may differ. Where two headings read alike, the source gives them in different places. Marks after values point to notes of the source that are not given here.

Legend:
[1] = tested on: PC-3 (human pancreas cancer cell); assay: MTT cytotoxicity, PC-3; assay type: cell-based; settings: 4 days
Description: (§1) Reagents: RPMI1640 is from GIBCO; MTT is from Bebco. Fetal bovine serum is purchased from Hangzhou SiJiQing Bioengineering Material Co. Ltd. (P. R. China).
(§2) Cell lines: COLO 205 (human colon cancer cell), NCI-H460 (human lung cancer cell), RPMI 8226 (human multiple myeloma cell), U251 (human brain glioma cell) are from ATCC, USA. HL-60 (human promyelocytic leukemia cell), MDA-MB-231, MDA-MB-435 (human breast cancer cell), SCLC (human small-cell lung cancer cell), H125 (human lung cancer cell) and PC-3 (human […] cancer cell).
(§3) The well-grown tumor cells were collected to prepare a cell suspension (1×10^4/ml) with RPMI 1640 medium containing 10% fetal bovine serum. The cell suspension was inoculated into a 96-well plate, 100 μL (containing 1000 tumor cells) per well. The plate was cultured in a 5% CO2 incubator at 37° C. for 24 hours, followed by addition of medicament.
(§4) A blank control and a positive control using 5-fluorouracil or adriamycin are employed in the experiment. […]
(§5) The supernatant was discarded. […] After gently shaking, the OD values were measured by a BIORAD 550 enzyme analyzer, with the detection wavelength being 540 nm and the reference wavelength being 450 nm.
(§6) Dose-response curves were generated by plotting with the cell inhibition rates and different concentrations of medicament, and the half inhibitory concentrations (IC50) were calculated.

[2] = tested on: H125 (human lung cancer cell); assay: MTT cytotoxicity, H125; assay type: cell-based; settings: 4 days
Description: as §1, §2, §3, §4, §5, §6

[3] = tested on: RPMI 8226 (human multiple myeloma cell); assay: MTT cytotoxicity, RPMI 8226; assay type: cell-based; settings: 4 days
Description: as §1, §2, §3, §4, §5, §6

[4] = tested on: SCLC (human small-cell lung cancer cell); assay: MTT cytotoxicity, SCLC; assay type: cell-based
Description: as §1, §2, §3
A blank control and a positive control using 5-fluorouracil or adriamycin are employed in the experiment. The CPT samples have five concentrations, three parallel wells for each concentration. The cells were cultured in an incubator with 5% CO2 at 37° C. for 4 days. Then the culture medium was removed and 100 μL MTT solution (0.4 mg/ml in RPMI 1640) was added to each well. The plate was incubated at 37° C. for four additional hours.
The supernatant was discarded. 150 μl DMSO was added into each well in order to solubilize Fomazan granulates. After gently shaking, the OD values were measured by a BIORAD 550 enzyme analyzer, with the detection wavelength being 540 nm and the reference wavelength being 450 nm.
as §6

[5] = tested on: human brain glioma U251; settings: U251 xenograft, ten injections; for Body Weight (g) Start / Tumor volume (mm^3) Start: baseline; for Inhibition rate (%): by tumor weight
Description: In this example, the animals used were BALB/c-nu nude mice, 6-8 weeks old. For each experiment, all animals were of the same sex.
Tumor cell lines: human brain glioma U251, human lung cancer cell line NCI-H460, human colon cancer cell line COLO205 were inoculated from in vitro culture into nude mice subcutaneously, the tumors were subcultured and kept.
Experimental Procedures: well-grown nude mice carrying well-grown tumors were selected and sacrificed by disjointing neck vertebra. The tumors were removed aseptically and were cut into pieces having a diameter of 2-3 mm by a scalpel. The pieces were inoculated into the axilla of nude mice subcutaneously by a needle. […] The length and width of tumors were measured by a vernier caliper. The animals were then grouped based their tumor sizes. Each group included seven to eight animals.
The length, width of the tumor and the body weight of the mice were measured twice per week. The tumor volume (TV) and relative tumor volume (RTV) were calculated. A graph indicating the changes of tumor size was plotted. At the end of this experiment, the tumors were taken out and weighed after the mice were sacrificed, and the inhibition rates of the medicament on tumor growth were calculated.
The formula for calculating tumor volume (TV) is: length×width^2÷2.
The formula for calculating relative tumor volume (RTV) is: Vt/Vo (wherein Vo is the TV value measured when the administration is started, Vt is the TV value measured after that).
T-test was used to determine the statistical difference of tumor weights, tumor volumes and RTV etc. between different groups of animal. The index used for evaluating the anti-tumor activity is the relative tumor growth rate T/C (%), the formula for which is: […]
(§7) The evaluation standard for efficacy:
(§8) T/C (%)>60 is ineffective;
T/C (%)≦60 and P<0.05 after statistical analysis is effective.
The Carmustine (Renmin Pharmaceuticals, Amino Acid Inc. Tianjin, P. R. China) was used as the positive control, 40 mg/kg, administered by intraperitoneal injection for once. CPT was given to four groups at the doses of 0.6 mg/kg, 1.7 mg/kg, 5.0 mg/kg, 15.0 mg/kg respectively, administered by intraperitoneal injection. The treatment included ten injections.

[6] = tested on: human lung cancer NCI-H460; assay: Growth of human lung cancer NCI-H460 xenograft in nude mice; assay type: in vivo, BALB/c-nu nude mice; settings: ten injections; for Body Weight (g) Start / Tumor volume (mm^3) Start: baseline; for Inhibition rate (%): by tumor weight
Description: The animals were then grouped based their tumor sizes. Each group included seven to eight animals.
as §7, §8
One additional injection was given at 80 mg/kg two weeks later. […] The treatment contained a total of ten injections.

[7] = tested on: cancer cells; assay: Induction of apoptosis of cancer cells compared with wild type TRAIL; assay type: cell-based; settings: CPT versus wild type TRAIL
[8] = Water solubility of the end product; assay type: physicochemical; settings: purified protein, white powder
Description: Finally, the protein was purified by an ion exchange column and a gel filtration column Superdex 200 (Pharmacia) mounted in an AKTA HPLC system (Pharmacia). […] The end product was a white powder and was water soluble.

[9] = CPT 1.7 mg/kg i.p. once per day
[10] = CPT 5.0 mg/kg i.p. once per day

B1: CPT: human recombinant circularly permuted TRAIL (CPT), which consists of 166 amino acid residues; SEQ ID No:2 (protein)
chain: TLSSPNSKNEKALGRKINSWESSRSGHSFLSNLHLRNGELVIHEKGFYYIYSQTYFRFQEEIKENTKNDKQMVQYIYKYTSYPDPILLMKSARNSCWSKDAEYGLYSIYQGGIFELKENDRIFVSVTNEHLIDMDHEASFFGAFLVGGGGGGVAAHITGTRGRSNT
modifications: Synthetically generated peptide
- IC50 [1]: 0.067 ± 0.002 µg/mL
- IC50 [2]: 0.085 ± 0.006 µg/mL
- IC50 [3]: 0.824 ± 0.093 µg/mL
- IC50 ([4]; 4 days): 10 ± 0 µg/mL
- inhibitory effect on the growth of SCLC cell ([4]; in words): some inhibitory effect; also recorded: some inhibition effect
- Body Weight (g) End ([5]; CPT 0.6 mg/kg i.p.): 21.0 ± 1.4 g
- RTV ([5]; CPT 0.6 mg/kg i.p.): 2.77 ± 1.97
- T/C (%) ([5]; CPT 0.6 mg/kg i.p.): 82.9%
- Tumor volume (mm^3) End ([5]; CPT 0.6 mg/kg i.p.): 961 ± 582 mm^3
- Tumor weight ([5]; CPT 0.6 mg/kg i.p.): 0.89 ± 0.49 g
- Body Weight (g) Start ([5]; CPT 0.6 mg/kg i.p.): 21.0 ± 0.8 g
- Tumor volume (mm^3) Start ([5]; CPT 0.6 mg/kg i.p.): 141 ± 40 mm^3
- Inhibition rate (%) ([5]; CPT 0.6 mg/kg i.p.): 30.5%
- Body Weight (g) End ([5]; CPT 1.7 mg/kg i.p.): 21.5 ± 2.0 g
- RTV ([5]; CPT 1.7 mg/kg i.p.): 2.12 ± 1.29
- T/C (%) ([5]; CPT 1.7 mg/kg i.p.): 63.5%
- Tumor volume (mm^3) End ([5]; CPT 1.7 mg/kg i.p.): 588 ± 215** mm^3
- Tumor weight ([5]; CPT 1.7 mg/kg i.p.): 0.71 ± 0.22 g
- Body Weight (g) Start ([5]; CPT 1.7 mg/kg i.p.): 21.6 ± 1.2 g
- Tumor volume (mm^3) Start ([5]; CPT 1.7 mg/kg i.p.): 131 ± 34 mm^3
- Inhibition rate (%) ([5]; CPT 1.7 mg/kg i.p.): 44.5%
- Body Weight (g) End ([5]; CPT 5.0 mg/kg i.p.): 21.9 ± 3.2 g
- RTV ([5]; CPT 5.0 mg/kg i.p.): 1.32 ± 1.24
- T/C (%) ([5]; CPT 5.0 mg/kg i.p.): 39.5%
- Tumor volume (mm^3) End ([5]; CPT 5.0 mg/kg i.p.): 510 ± 333** mm^3
- Tumor weight ([5]; CPT 5.0 mg/kg i.p.): 0.45 ± 0.26 g
- Body Weight (g) Start ([5]; CPT 5.0 mg/kg i.p.): 22.0 ± 1.1 g
- Tumor volume (mm^3) Start ([5]; CPT 5.0 mg/kg i.p.): 133 ± 57 mm^3
- Inhibition rate (%) ([5]; CPT 5.0 mg/kg i.p.): 64.8%
- Body Weight (g) End ([5]; CPT 15 mg/kg i.p.): 21.1 ± 1.7 g
- RTV ([5]; CPT 15 mg/kg i.p.): 0.71 ± 0.57
- Tumor volume (mm^3) End ([5]; CPT 15 mg/kg i.p.): 261 ± 238** mm^3
- Tumor weight ([5]; CPT 15 mg/kg i.p.): 0.16 ± 0.15 g
- Body Weight (g) Start ([5]; CPT 15 mg/kg i.p.): 21.6 ± 1.1 g
- Tumor volume (mm^3) Start ([5]; CPT 15 mg/kg i.p.): 148 ± 58 mm^3
- Inhibition rate (%) ([5]; CPT 15 mg/kg i.p.): 87.5% and 87.7%
- Body Weight (g) End [6, 9]: 19.8 ± 1.6 g
- RTV [6, 9]: 2.27 ± 1.13
- T/C (%) [6, 9]: 38.0%
- Tumor volume (mm^3) End [6, 9]: 706 ± 170* mm^3
- Tumor weight [6, 9]: 0.77 ± 0.19 g
- Body Weight (g) Start [6, 9]: 20.1 ± 1.9 g
- Tumor volume (mm^3) Start [6, 9]: 200 ± 103 mm^3
- Inhibition rate (%) [6, 9]: 52.2%
- Body Weight (g) End [6, 10]: 18.5 ± 2.5 g
- RTV [6, 10]: 1.49 ± 0.76
- Tumor volume (mm^3) End [6, 10]: 469 ± 359** mm^3
- Tumor weight [6, 10]: 0.41 ± 0.28 g
- Body Weight (g) Start [6, 10]: 20.4 ± 1.9 g
- Tumor volume (mm^3) Start [6, 10]: 187 ± 51 mm^3
- Inhibition rate (%) [6, 10]: 74.5%
- Body Weight (g) End ([6]; CPT 15 mg/kg i.p. once per day): 21.1 ± 1.7 g
- RTV ([6]; CPT 15 mg/kg i.p. once per day): 0.79 ± 0.25
- Tumor volume (mm^3) End ([6]; CPT 15 mg/kg i.p. once per day): 189 ± 102** mm^3
- Tumor weight ([6]; CPT 15 mg/kg i.p. once per day): 0.21 ± 0.10 g
- Body Weight (g) Start ([6]; CPT 15 mg/kg i.p. once per day): 20.9 ± 1.1 g
- Tumor volume (mm^3) Start ([6]; CPT 15 mg/kg i.p. once per day): 192 ± 63 mm^3
- Inhibition rate (%) ([6]; CPT 15 mg/kg i.p. once per day): 87.0% and 88.8%
- activity to induce apoptosis of cancer cells relative to wild type TRAIL [7]: six to eleven times as strong
- water solubility of the end product [8]: water soluble
